Assay results: patent US8282967B2, “Nitric oxide-releasing particles for nitric oxide therapeutics and biomedical applications” (The University of North Carolina at Chapel Hill, priority 2005, dated 2012)

How the values were obtained:
[1] = Nitric oxide release from diazeniumdiolated materials; assay type: physicochemical
Protocol: Nitric oxide release of the presently disclosed NO-releasing particles was measured according to the following general procedure. Referring now to FIG. 12, a predetermined volume of phosphate buffer solution (PBS) (pH 7.4, 37° C.) was disposed in a receptacle, e.g., a round-bottomed flask. The receptacle was sealed, leaving an inlet for nitrogen gas and an outlet for a mixture of nitrogen and nitric oxide. The outlet was in fluid communication with a chemiluminescence nitric oxide analyzer. An aliquot of a solution containing a diazeniumdiolated species was injected into the PBS buffer. The chemiluminescence nitric oxide analyzer measured the amount of NO that reacted with ozone (O3) to form excited NO2*, which emitted electromagnetic radiation (hv) as shown in Scheme 2. […] NO2*→NO2+hv Scheme 2. Measurement of NO by chemiluminescence.
NO release from a variety of NO-releasing materials was measured according to the procedure outlined in Example 3. The diazeniumdiolated fumed silica particles were prepared as described in Example 9, below, grafting the fumed silica surface to N-(6-aminohexyl)-3-aminopropyltrimethoxysilane, followed by diazeniumdiolation of the secondary amine with NO gas.

[2] = system: A2780 ovarian epithelial tumor cells; test: MTT cell viability assay, A2780 cells; assay type: cell-based, human; conditions: small molecule NO donor; cell line not named in the sentence (b369 names OVCAR-3 for PYRRO/NO)
Protocol: To evaluate the tumoricidal potential of NO donor silica nanoparticles, the cytotoxicity of control and NO-releasing silica particles on immortalized normal (T29) and cancer (A2780 and OVCAR-3) human ovarian epithelial cells was tested. MTT cell viability assays were performed as described below. The 3-(4,5-dimethylthiazol-2-yl-)-2,5-diphenyltetrazoliumbromide (MTT) proliferation assay was employed to determine the relative sensitivities of OVCAR-3 cells to PYRRO/NO. Cells were seeded in 6 replicates at 1−5×10^3 cells/well in 96-well microtiter plates, incubated overnight, and exposed to concentrations of NO donor and control pyrrolidine solutions for 48 h. The NO-releasing medium was then removed and replaced by MTT solution, upon which the cells were incubated for an additional 4 h at 37° C. Following removal of the MTT, DMSO was added, and the absorption of the solution was measured at 560 nm using a microplate reader.
To investigate whether nanoparticle size affects cytotoxicity, two silica nanoparticles (75 mol % MAP3, balance TEOS) of different particle size (80 and 350 nm in diameter, hereafter referred to as s-MAP3 and L-MAP3, respectively) were synthesized. […] Cell viability was determined by incubating T29 and A2780 with non NO-releasing control MAP3 particle (80 nm), s-MAP3, or L-MAP3 (0.4 mg/mL) for 48 h. […]

Row | Compound | NO Released [1] [mmol NO/g] | tv2 [1] | Cytotoxic NO concentration [2] [mM NO]
1 | Proteins (Bovine serum albumin (BSA): diazeniumdiolated bovine serum albumin | 0.54 | 7.2E4. min | –
2 | [Na+].[O-]N=[N+]([O-])N1CCCC1 [PYRRO/NO] | – | – | 4.4
